Laboratory results published in patent US12545899B2, “Luciferase enzymes for use with thermostable luciferins in bioluminescent assays” (Promega Corporation, priority 2018, dated 2026).

How the values were obtained:
[1] = E. coli lysate activity of position 244/339 variants with CS0333 (FIG. 7); format: biochemical; settings: E. coli lysates; Detection Reagent; 0.5 mM substrate; 1 mM ATP; 3 mins
Experimental: FIG. 7 includes a representative graph assessing the activities of luciferase enzyme variants with amino acid substitutions at positions 244 and 339 of SEQ ID NO: 1 in the presence of 5,5-disubstituted luciferin analog substrate. Assays were prepared by combining overnight E. coli culture expressing enzymes with Detection Reagent+ATP+substrate (luciferin analog compounds CS0280, CS0333, CS0510, and CS0326), and luminescence was read at 3 mins. Reagent compositions included 50 μl lysate of the thermostable luciferase variant of Ppe variant of SEQ ID NO: 1, 0.5 mM substrate, and 1 mM ATP.

[2] = Effect of V300G, L305F, S306P on activity with CS0333 (FIG. 13); format: biochemical; settings: 1 mM ATP; 100 nM to 1 mM substrate; Bright-Glo buffer
Experimental: FIG. 13 includes a representative graph of the effects of amino acid substitutions V300G, L305F, and S306P on enzyme activity with the CS0333 analog. Reagent compositions included […]+1 mM ATP+100 nM to 1 mM substrate in Bright-Glo™ buffer.

[3] = Kinetic analysis of ATG-2889 with CS0333 versus luciferin (FIG. 16B); format: biochemical
Experimental: FIG. 16B provides similar results. […] The composition was incubated for 3 mins prior to quantification.

[4] = Activity of ATG-2889 variants (positions 344/396) with CS0333; format: biochemical; settings: substrate CS0333
Excerpt: (§1) Additionally, several other amino acid substitutions, including those not considered to be conservative or semi-conservative, were made to ATG-2889, as shown below in Table 2.

[5] = Activity of ATG-2889 variants (positions 344/396) with D/L-luciferin; format: biochemical; settings: substrate D/L-luciferin
Excerpt: as §1

[6] = Activity of ATG-2671 with luciferin analogs; format: biochemical; settings: data not shown
Experimental: FIG. 15 includes representative graphs of kinetic activity of the luciferase enzyme variant ATG-2671 with D/L-luciferin. […] The composition was incubated for 3 mins and read on GloMax® Multi+platform.

[7] = Kinetic analysis of Ppe variant, ATG-3707, ATG-4117 with D/L-luciferin; format: biochemical
Experimental: Kinetic tests of these luciferase enzyme variants were also conducted. […] Reagent compositions included 0.005 mg/ml luciferase enzyme variant+1 mM ATP, and 0.1 fM to 1 mM substrate in Bright-Glo™ (BG) or Detection Reagent (DR) buffers. The composition was incubated for 3 mins and read on GloMax® Multi+platform.
Table 8 below includes representative results of kinetic analysis of the thermostable luciferase variants of Ppe (SEQ ID NO: 1), ATG-3707, and ATG-4117. The Ppe variant (SEQ ID NO: 1) was tested with D/L-luciferin, and ATG-3707, and ATG-4117 were tested with CS0280 and CS0333.

[8] = Kinetic analysis of thermostable variants with D/L-luciferin (Table 10); format: biochemical
Experimental: Experiments were also conducted to evaluate the activities (i.e. Vmax and Km) of the various thermostable luciferase variants of Ppe (SEQ ID NO: 1) described above.
(§2) Tables 10 and 11 include representative results of kinetic analysis of the thermostable variants with D/L luciferin, CS0333, and CS0280. […] MK0135 and MK0137 have amino acid substitutions that improve thermostability relative to MK0133 and MK0134, respectively, while retaining activity on the luciferin analogs CS0333 and CS0280.

[9] = Kinetic analysis of thermostable variants with D/L-luciferin (Tables 13, 14); format: biochemical; settings: 2 mM ATP
[10] = Luminescence at 1 mM D/L-luciferin (Table 11); format: biochemical; settings: 1 mM substrate, 1 mM ATP
Excerpt: as §2

[11] = Vmax and Km of Ppe variant and ATG-3707 with D/L-luciferin; format: biochemical
[12] = Differential scanning fluorimetry (DSF) analysis; format: physicochemical; settings: Table 9A
Summary of the method: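 Thermal melt with 5× final Sypro Orange: ramp 1° C/min from 30 to 95° C, reading each 60 s, derivative of fluorescence plotted by temperature. Luciferase variants were in 20 mM HEPES pH 7.5, 200 mM NaCl, 1 mM EDTA; other enzymes in 50 mM HEPES pH 7.5, 100 mM NaCl, 2 mM EDTA.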

[13] = Luminescence at 1 mM CS0333 (Table 11); format: biochemical; settings: 1 mM substrate, 1 mM ATP
Excerpt: as §2

[14] = Luminescence at 1 mM CS0280 (Table 11); format: biochemical; settings: 1 mM substrate, 1 mM ATP
Excerpt: as §2

[15] = Km for ATP with saturating substrate (FIG. 18); format: biochemical; settings: with CS0333, relative to Ppe variant with luciferin
Experimental: Reagent composition included 1 mM substrate, 100 fM-100 uM ATP (10-fold dilutions), and 0.1 mg/ml enzyme. […] Thus, the combination of the ATG-3674 luciferase enzyme variant with the thermostable CS0333 luciferin analog substrate will be effective in ATP detection/quantification assays.

B1: ATG2889: SEQ ID NO: 12; H244W+T344A+I396K (protein)
chain: MADKNILYGPEPFYPLEDGTAGEQMFDALSRYAAIPGCIALTNAHTKENVLYEEFLKLSCRLAESFKKYGLKQNDTIAVCSENSLQFFLPVIASLYLGIIVAPVNDKYIERELIHSLGIVKPRIVFCSKNTFQKVLNVKSKLKSIETIIILDLNEDLGGYQCLNNFISQNSDSNLDVKKFKPYSFNRDDQVASIMFSSGTTGLPKGVMLTHKNIVARFSIAKDPTFGNAINPTSAILTVIPFHWGFGMMTTLGYFTCGFRVVLMHTFEEKLFLQSLQDYKVESTLLVPTLMAFLAKSALVEKYDLSHLKEIASGGAPLSKEIGEMVKKRFKLNFVRQGYGLTEATSAVLITPKGDAKPGSTGKIVPLHAVKVVDPTTGKILGPNEPGELYFKGPMKMKGYYNNEEATKAIIDNDGWLRSGDIAYYDNDGHFYIVDRLKSLIKYKGYQVAPAEIEGILLQHPYIVDAGVTGIPDEAAGELPAAGVVVQTGKYLNEQIVQDYVASQVSTAKWLRGGVKFLDEIPKGSTGKIDRKVLRQMLEKHTNGHHHHHHHH
For B1, which “activity above background with CS0333” value [1] is on record?
The value was “approximately 285 fold”.

And the “activity with CS0333 relative to Ppe variant (SEQ ID NO: 1)” value [2]?
The value was “improved activity”.

What about the “Vmax with CS0333 lower than the Vmax for luciferin” value ([3]; Bright-Glo Buffer) of the same molecule?
The value was 23.1 fold.

What about the “Vmax with CS0333 lower than the Vmax for luciferin” value ([3]; Detection Reagent buffer) of the same molecule?
Its value is 42.9 fold.

And the “activity with CS0333” value [4]?
The value was 679219.

And the “activity with D/L-luciferin” value [5]?
Its value is 5507240.

B2: ATG-2671: luciferase enzyme variant ATG-2671 (G245A+L285I+G315A) (protein)
chain: MADKNILYGPEPFYPLEDGTAGEQMFDALSRYAAIPGCIALTNAHTKENVLYEEFLKLSCRLAESFKKYGLKQNDTIAVCSENSLQFFLPVIASLYLGIIVAPVNDKYIERELIHSLGIVKPRIVFCSKNTFQKVLNVKSKLKSIETIIILDLNEDLGGYQCLNNFISQNSDSNLDVKKFKPYSFNRDDQVASIMFSSGTTGLPKGVMLTHKNIVARFSIAKDPTFGNAINPTSAILTVIPFHHAFGMMTTLGYFTCGFRVVLMHTFEEKLFLQSLQDYKVESTILVPTLMAFLAKSALCEKYDLSHLKEIASGAAPLSKEIGEMVKKRFKLNFVRQGYGLTETTSAVLITPKGDAKPGSTGKIVPLHAVKVVDPTTGKILGPNEPGELYFKGPMIMKGYYNNEEATKAIIDNDGWLRSGDIAYYDNDGHFYIVDRLKSLIKYKGYQVAPAEIEGILLQHPYIVDAGVTGIPDEAAGELPAAGVVVQTGKYLNEQIVQDYVASQVSTAKWLRGGVKFLDEIPKGSTGKIDRKVLRQMLEKHTNGHHHHHHHH
Which “activity with luciferin analogs” value [6] does the source give for B2 here?
The value was “not active”.

B3: Ppe variant: thermostable luciferase variant of Photuris pennsylvanica (Ppe) of SEQ ID NO: 1 (protein)
chain: MADKNILYGPEPFYPLEDGTAGEQMFDALSRYAAIPGCIALTNAHTKENVLYEEFLKLSCRLAESFKKYGLKQNDTIAVCSENSLQFFLPVIASLYLGIIVAPVNDKYIERELIHSLGIVKPRIVFCSKNTFQKVLNVKSKLKSIETIIILDLNEDLGGYQCLNNFISQNSDSNLDVKKFKPYSFNRDDQVASIMFSSGTTGLPKGVMLTHKNIVARFSIAKDPTFGNAINPTSAILTVIPFHHGFGMMTTLGYFTCGFRVVLMHTFEEKLFLQSLQDYKVESTLLVPTLMAFLAKSALCEKYDLSHLKEIASGGAPLSKEIGEMVKKRFKLNFVRQGYGLTETTSAVLITPKGDAKPGSTGKIVPLHAVKVVDPTTGKILGPNEPGELYFKGPMIMKGYYNNEEATKAIIDNDGWLRSGDIAYYDNDGHFYIVDRLKSLIKYKGYQVAPAEIEGILLQHPYIVDAGVTGIPDEAAGELPAAGVVVQTGKYLNEQIVQDYVASQVSTAKWLRGGVKFLDEIPKGSTGKIDRKVLRQMLEKHTNGHHHHHHHH
What does the source list for B3?
Km ([7]; BrightGlo): 0.466 µM; Vmax (RLU) ([7]; BrightGlo): 23,226,184 RLU; Km ([7]; Detection Reagent): 11 µM; Vmax (RLU) ([7]; Detection Reagent): 12,592,733 RLU; Km ([8]; BrightGlo Buffer): 0.667 µM; Vmax (RLU) ([8]; BrightGlo Buffer): 18,332,536 RLU; Km ([8]; Detection Reagent Buffer): 9.38 µM; Vmax (RLU) ([8]; Detection Reagent Buffer): 9,350,431 RLU; Km ([9]; BrightGlo Buffer): 1.03 µM; Vmax (RLU) ([9]; BrightGlo Buffer): 14,958,892 RLU; Km ([9]; Detection Reagent Buffer): 28.3 µM; Vmax (RLU) ([9]; Detection Reagent Buffer): 5,686,042 RLU; activity above background with CS0333 [1]: below background (inhibited); Vmax (RLU) D/L-luciferin BrightGlo Buffer ([10]; BrightGlo Buffer): 30,177,800 RLU; Vmax (RLU) D/L-luciferin Detection Reagent Buffer ([10]; Detection Reagent Buffer): 17,201,600 RLU; Km ([11]; BrightGlo Buffer): 0.315 µM; Vmax (RLU) ([11]; BrightGlo Buffer): 23,319,814 RLU; Km ([11]; CellTiterGlo buffer): 1060 µM; Vmax (RLU) ([11]; CellTiterGlo buffer): 5,771,822 RLU; Km ([11]; Detection Reagent Buffer): 10.8 µM; Vmax (RLU) ([11]; Detection Reagent Buffer): 10,017,520 RLU; DSF Tm (° C.) [12]: 79 °C; activity with CS0333 [4]: 178; Vmax (RLU) CS0333 BrightGlo Buffer ([13]; BrightGlo Buffer): 862 RLU; Vmax (RLU) CS0333 Detection Reagent Buffer ([13]; Detection Reagent Buffer): 724 RLU; activity with D/L-luciferin [5]: 7118320; Vmax (RLU) CS0280 BrightGlo Buffer ([14]; BrightGlo Buffer): 3,689 RLU; Vmax (RLU) CS0280 Detection Reagent Buffer ([14]; Detection Reagent Buffer): 394 RLU

B4: ATG-3674: SEQ ID NO: 25; H244W+T344A+I396K+S193A+N228D+L305F+S306P (protein)
chain: MADKNILYGPEPFYPLEDGTAGEQMFDALSRYAAIPGCIALTNAHTKENVLYEEFLKLSCRLAESFKKYGLKQNDTIAVCSENSLQFFLPVIASLYLGIIVAPVNDKYIERELIHSLGIVKPRIVFCSKNTFQKVLNVKSKLKSIETIIILDLNEDLGGYQCLNNFISQNSDSNLDVKKFKPYSFNRDDQVAAIMFSSGTTGLPKGVMLTHKNIVARFSIAKDPTFGDAINPTSAILTVIPFHWGFGMMTTLGYFTCGFRVVLMHTFEEKLFLQSLQDYKVESTLLVPTLMAFLAKSALVEKYDFPHLKEIASGGAPLSKEIGEMVKKRFKLNFVRQGYGLTEATSAVLITPKGDAKPGSTGKIVPLHAVKVVDPTTGKILGPNEPGELYFKGPMKMKGYYNNEEATKAIIDNDGWLRSGDIAYYDNDGHFYIVDRLKSLIKYKGYQVAPAEIEGILLQHPYIVDAGVTGIPDEAAGELPAAGVVVQTGKYLNEQIVQDYVASQVSTAKWLRGGVKFLDEIPKGSTGKIDRKVLRQMLEKHTNGHHHHHHHH
For B4, which “Km values for ATP” value [15] is on record?
The value was “equivalent to improved Km values for ATP”.
